Patent US20170320960A1 (AbbVie / Abbott, published 2017)
Read-outs that look alike come from different tables or passages of the source. Blank lines part the entries; values can stand above or below the binder they belong to.

Assays:
[1] = biological target: T1, hMFI2 Tf-like Domain 1 (TLD1), amino acids 20-357, displayed on yeast (human, UniProt P08582 20-357); assay: flow cytometry on yeast displaying hMFI2 domains
T1 construct: also called TFLD1
T1 sequence: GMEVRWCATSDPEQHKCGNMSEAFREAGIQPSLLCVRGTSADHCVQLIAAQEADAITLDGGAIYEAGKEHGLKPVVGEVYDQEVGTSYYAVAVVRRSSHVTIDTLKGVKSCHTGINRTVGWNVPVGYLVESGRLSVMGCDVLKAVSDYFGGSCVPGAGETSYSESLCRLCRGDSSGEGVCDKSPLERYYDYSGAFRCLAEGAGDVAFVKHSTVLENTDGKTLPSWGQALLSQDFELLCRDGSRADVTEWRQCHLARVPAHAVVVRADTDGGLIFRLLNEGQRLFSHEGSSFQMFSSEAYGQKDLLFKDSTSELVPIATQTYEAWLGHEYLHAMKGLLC

[2] = biological target: T1, hMFI2 Tf-like Domain 1 (TLD1), amino …; assay: flow cytometry on yeast displaying hMFI2 domains; remark: listed apart in the source

binding result [1]: binds
B1: SC57.7 (antibody, V domains shown)
VH: GVQVVESGGGVVQPGGSLKLSCAASGFTFSSYAMSWVRQTPEKRLEWVAYLSRGGGSTYYLDTVKGRFTISRDNAKNTLYLQMNSLKSEDTAMYYCARLDGYNWYFDVWGAGTPVTVSS
VL: DIVMSQSPSSLAVSAGEKVTMSCKSSQSLLHSRIRKNYLAWYQQKPGQSPKLLIYWASTRESGVPDRFTGSGSGTDFTLTISSVQAEDLAVYYCKQSYNLFTFGGGTKLEIK

binding result [2]: binds
B2: SC57.48 (antibody, V domains shown)
VH: B1 VH
VL: B1 VL

binding result [1]: binds
B3: SC57.27 (antibody, V domains shown)
VH: ELKLVESGGDLVKPGGSLKLSCAASGFSFNNYAMSWVRQTPEKRLEWVASISSGGTTFYPDSVKGRFTMSRDHARNILYLQMNSLRSEDTAMYYCVRGQWLSLYSMDYWGQGTSVTVSS
VL: DIQMTQSPVSLSASVGETVTITCRASEIIYSYLAWYQQKQGKSPQLLVYNAKTLAEGVPSRFSGSGSGTQFSLKINSLQPEDFGTYYCQHHYGVPVTFGAGTKLELK

binding result [1]: binds
B4: SC57.2 (antibody, V domains shown)
VH: QVQLKQSGPGLVQPSQSLSITCTVSGFSLTDYGVHWVRQSPGKGLDWLGVIWSGGNTDYNAAFISRLSISKDNSKSQIFFEMNSLQDTDTAIYYCARQLHYYGPFAYWGQGTLVTVSA
VL: QIVLTQSPAIMSASPGEKVTMTCSASSSVSYMHWYQQKSGTSPKRWIYDTSKLASGVPVRFSGSGSGTSYSLTISSIEADDAATYYCQQWSRTPPTFGGGTKLEIK
